Measurements reported in US20240299596A1, “METHODS AND MATERIALS FOR COMBINING BIOLOGICS WITH MULTIPLE CHELATORS” (priority 2021, published 2024).

Experiments:
[1] = Micro PET imaging and ex-vivo biodistribution (SUV) in normal nude mice; set-up: species or system normal nude mice (strain: 002019, NU/J); details: mouse
From the text: in accordance with Loening AM and Gambhir SS. […] Mol Imaging 2003; 2:131-7.

[2] = Stability of ^64Cu-Conjugate 2 over time by TLC; format: physicochemical; details: silica gel, 0.1M sodium citrate
Description: The Conjugate-1 was radiolabeled with Cu-64 using [^64Cu]CuCl2 produced from cyclotron and formulated in 0.1M hydrochloric acid. Different amounts (50 μg, 100 μg) of Conjugate-1 were used and the pH was adjusted to 5.0 using 0.1M sodium acetate after addition of [^64Cu]CuCl2. The resultant reaction mixture was stirred at room temperature for different durations as 10 minutes, 20 minutes, 30 minutes, and 40 minutes to optimize radiolabeling yield with reaction time. The progress and yield of the reactions were monitored by radioactive thin layer chromatography (r-TLC) using iTLC (silica gel coated on paper, Agilent Technologies Inc., Santa Clara, CA) and 0.1M sodium citrate as a mobile phase. In this r-TLC condition, unconjugated (Free)^64Cu moves to the solvent front of the r-TLC and radiolabeled ^64Cu-Conjugate-1 stays at the origin of the r-TLC plate. Based on our tested radiolabeling condition, the reaction achieved >99% yield radiolabeling in 10 minutes and at all other time points at pH 5.0 using sodium acetate as a reaction buffer via stirring at room temperature. Formation of radiolabeled ^64Cu-Conjugate-1 was also confirmed by radio HPLC.
The TLC was performed with a silica gel solid phase and 0.1M sodium citrate mobile phase.
The stability of the ^64Cu-Conjugate 2 was also analyzed by TLC using the same TLC method as the ^64Cu-Conjugate 1 at various time points. The time points included: 40 minutes (Table 31 and FIG. 26), 2 hours (Table 32 and FIG. 27), 4 hours (Table 33 and FIG. 28), 8 hours (Table 34 and FIG. 29).

in vitro = in vitro ADME, mouse
Description: The stability of the ^64Cu-Conjugate 2 was tested in mouse serum and human serum at 37° C. using the Rad-iTLC method. Approximately 1.0 mL of mouse serum was extracted from blood of the mice and ˜1.0 mL of human serum was extracted from blood obtained from the Mayo Clinic's blood bank to measure the stability of radiolabeled ^64Cu-Conjugate 2. Obtained mouse and human serums were distributed separately in 100 μL aliquots in 1.5 mL microcentrifuge tubes (n=3). To which, 20 μL of ^64Cu-Conjugate2 was added in each 100 μL serum aliquot and mixed thoroughly. From this mixture, a small amount of reaction mixture was taken out using glass capillary tube and immediately spotted on an iTLC plate for analysis as T=0 timepoint (n=3). The rest of the reaction mixtures were incubated at 37° C. for up to 2 hours and small fractions were taken out at 1 hour and 2 hours post incubation to analyze the stability of ^64Cu-Conjugate 2 over time using radioactive thin layer chromatography (r-TLC). To do r-TLC analysis, iTLC (silica gel coated on paper, Agilent Technologies Inc., Santa Clara, CA) was used as a solid phase and 0.1M sodium citrate as a mobile phase. In this r-TLC condition, unconjugated (free)^64Cu moves to the solvent front of the r-TLC and radiolabeled ^64Cu-Conjugate 2 stays at the origin of the r-TLC plate. Based on the relative % of radioactivity at origin and at the solvent front, the % of intact ^64Cu-Conjugate2 and free ^64Cu was measured as presented in Tables 35 and 36.

[3] = Stability of ^64Cu-Conjugate 2 over time by HPLC; format: physicochemical
Description: The method used a Schmadzu HPLC system, which was equipped with dual UV and radioactivity detectors. […] Conjugate 2 was tested with varying concentrations (Table 18A below). […] For analysis, the compound was dissolved in water and a calibration curve was prepared to estimate the specific activity of the synthesized compound. Depending upon the chemical nature of the compound a different retention time was observed.
The stability of the ^64Cu-Conjugate 2 was tested using the same HPLC method as the Conjugate 2 at various time points. The time points included: 40 minutes (Tables 23-24 and FIG. 22), 2 hours (Tables 25-26 and FIG. 23), 4 hours (Tables 27-28 and FIG. 24), and 8 hours (Tables 29-30 and FIG. 25).

## NC(=O)CN1CCN(CC(N)=O)CCN(CC(N)=O)C(Cc2ccc(NC(=S)NCCN(CCNC(=S)Nc3ccc(CC4CN(CC(=O)O)CCN(CC(=O)O)CCN4CC(=O)O)cc3)C(=O)Cc3ccc(NC(=S)NCCCC[C@H](NC(=O)N[C@@H](CCC(=O)O)C(=O)O)C(=O)O)cc3)cc2)CN(CC(N)=O)CC1 (some centres unmarked) [^64Cu-Conjugate 2, metal not drawn]
[1]
  Site of accumulation in PET image: accumulates in proximal tubules in the kidney
[2]; 40 minutes
  % of ROI, Rgn 1 (origin, radiolabeled conjugate): 99.62%
  % of ROI, Rgn 2 (solvent front, free ^64Cu): 0.38%
[2]; 2 hours
  % of ROI, Rgn 1 (origin, radiolabeled conjugate): 99.40%
  % of ROI, Rgn 2 (solvent front, free ^64Cu): 0.60%
[2]; 4 hours
  % of ROI, Rgn 2 (solvent front, free ^64Cu): 0.36%
[2]; 8 hours
  % of ROI, Rgn 1 (origin, radiolabeled conjugate): 99.19%
  % of ROI, Rgn 2 (solvent front, free ^64Cu): 0.81%
In vitro
  Intact (%), Average: 98.26%
  Stability in mouse serum (in words): stable up to 2 hours in mouse serum
In vitro; mouse, serum
  remaining at 1 h: 96.8%
  remaining at 2 h: 97.6%
[3]; 40 minutes, Table 23 trace, peak at Ret. Time 9.335
  % Conc. of main HPLC peak: 99.894%
[3]; 40 minutes, Table 24 trace, peak at Ret. Time 8.609
  % Conc. of main HPLC peak: 98.297%
[3]; 2 hours, Table 25 trace, peak at Ret. Time 9.298
  % Conc. of main HPLC peak: 99.770%
[3]; 2 hours, Table 26 trace, peak at Ret. Time 8.572
  % Conc. of main HPLC peak: 98.718%
[3]; 4 hours, Table 27 trace, peak at Ret. Time 9.286
  % Conc. of main HPLC peak: 99.463%
[3]; 4 hours, Table 28 trace, peak at Ret. Time 8.555
  % Conc. of main HPLC peak: 98.453%
[3]; 8 hours, Table 29 trace, peak at Ret. Time 9.359
  % Conc. of main HPLC peak: 99.107%
[3]; 8 hours, Table 30 trace, peak at Ret. Time 8.562
  % Conc. of main HPLC peak: 98.173%
